Test results reported in patent publication US20060263802A1 (CRUCELL HOLLAND B V, published 2006).

What was measured:
Experiment in all cases: PEPSCAN ELISA, looped 15-mer, 10 ug/ml
[1] = target: looped peptide … (rabies virus strain ERA)
[2] = target: looped peptide … (rabies virus strain ERA); remark: listed apart in the source
[3] = target: looped peptide … (rabies virus strain ERA); remark: listed apart in the source
[4] = target: looped peptide … (rabies virus strain ERA); remark: listed apart in the source
[5] = target: looped peptide … (rabies virus strain ERA); remark: listed apart in the source
[6] = target: looped peptide … (rabies virus strain ERA); remark: listed apart in the source
[7] = target: looped peptide … (rabies virus strain ERA); remark: listed apart in the source
[8] = target: looped peptide … (rabies virus strain ERA); remark: listed apart in the source
[9] = target: looped peptide … (rabies virus strain ERA); remark: listed apart in the source
[10] = target: looped peptide … (rabies virus strain ERA); remark: listed apart in the source
[11] = target: looped peptide … (rabies virus strain ERA); remark: listed apart in the source
[12] = target: looped peptide … (rabies virus strain ERA); remark: listed apart in the source
[13] = target: looped peptide … (rabies virus strain ERA); remark: listed apart in the source
[14] = target: looped peptide … (rabies virus strain ERA); remark: listed apart in the source
[15] = target: looped peptide … (rabies virus strain ERA); remark: listed apart in the source
[16] = target: looped peptide … (rabies virus strain ERA); remark: listed apart in the source
[17] = target: looped peptide … (rabies virus strain ERA); remark: listed apart in the source
[18] = target: looped peptide … (rabies virus strain ERA); remark: listed apart in the source
[19] = target: looped peptide … (rabies virus strain ERA); remark: listed apart in the source
[20] = target: looped peptide … (rabies virus strain ERA); remark: listed apart in the source
[21] = target: looped peptide … (rabies virus strain ERA); remark: listed apart in the source
[22] = target: looped peptide … (rabies virus strain ERA); remark: listed apart in the source
[23] = target: looped peptide … (rabies virus strain ERA); remark: listed apart in the source
[24] = target: looped peptide … (rabies virus strain ERA); remark: listed apart in the source
[25] = target: looped peptide … (rabies virus strain ERA); remark: listed apart in the source
[26] = target: looped peptide … (rabies virus strain ERA); remark: listed apart in the source
[27] = target: looped peptide … (rabies virus strain ERA); remark: listed apart in the source
[28] = target: looped peptide … (rabies virus strain ERA); remark: listed apart in the source
[29] = target: looped peptide … (rabies virus strain ERA); remark: listed apart in the source
[30] = target: looped peptide … (rabies virus strain ERA); remark: listed apart in the source
[31] = target: looped peptide … (rabies virus strain ERA); remark: listed apart in the source
[32] = target: looped peptide … (rabies virus strain ERA); remark: listed apart in the source
[33] = target: looped peptide … (rabies virus strain ERA); remark: listed apart in the source
[34] = target: looped peptide … (rabies virus strain ERA); remark: listed apart in the source
[35] = target: looped peptide … (rabies virus strain ERA); remark: listed apart in the source
[36] = target: looped peptide … (rabies virus strain ERA); remark: listed apart in the source
[37] = target: looped peptide … (rabies virus strain ERA); remark: listed apart in the source
[38] = target: looped peptide … (rabies virus strain ERA); remark: listed apart in the source
[39] = target: looped peptide … (rabies virus strain ERA); remark: listed apart in the source
[40] = target: looped peptide … (rabies virus strain ERA); remark: listed apart in the source
[41] = target: looped peptide … (rabies virus strain ERA); remark: listed apart in the source
[42] = target: looped peptide … (rabies virus strain ERA); remark: listed apart in the source
[43] = target: looped peptide … (rabies virus strain ERA); remark: listed apart in the source
[44] = target: looped peptide … (rabies virus strain ERA); remark: listed apart in the source
[45] = target: looped peptide … (rabies virus strain ERA); remark: listed apart in the source
[46] = target: looped peptide … (rabies virus strain ERA); remark: listed apart in the source
[47] = target: looped peptide … (rabies virus strain ERA); remark: listed apart in the source
[48] = target: looped peptide … (rabies virus strain ERA); remark: listed apart in the source
[49] = target: looped peptide … (rabies virus strain ERA); remark: listed apart in the source
[50] = target: looped peptide … (rabies virus strain ERA); remark: listed apart in the source
[51] = target: looped peptide … (rabies virus strain ERA); remark: listed apart in the source
[52] = target: looped peptide … (rabies virus strain ERA); remark: listed apart in the source
[53] = target: looped peptide … (rabies virus strain ERA); remark: listed apart in the source
[54] = target: looped peptide … (rabies virus strain ERA); remark: listed apart in the source
[55] = target: looped peptide … (rabies virus strain ERA); remark: listed apart in the source
[56] = target: looped peptide … (rabies virus strain ERA); remark: listed apart in the source
[57] = target: looped peptide … (rabies virus strain ERA); remark: listed apart in the source
[58] = target: looped peptide … (rabies virus strain ERA); remark: listed apart in the source
[59] = target: looped peptide … (rabies virus strain ERA); remark: listed apart in the source
[60] = target: looped peptide … (rabies virus strain ERA); remark: listed apart in the source
[61] = target: looped peptide … (rabies virus strain ERA); remark: listed apart in the source
[62] = target: looped peptide … (rabies virus strain ERA); remark: listed apart in the source
[63] = target: looped peptide … (rabies virus strain ERA); remark: listed apart in the source
[64] = target: looped peptide … (rabies virus strain ERA); remark: listed apart in the source
[65] = target: looped peptide … (rabies virus strain ERA); remark: listed apart in the source
[66] = target: looped peptide … (rabies virus strain ERA); remark: listed apart in the source
[67] = target: looped peptide … (rabies virus strain ERA); remark: listed apart in the source
[68] = target: looped peptide … (rabies virus strain ERA); remark: listed apart in the source
[69] = target: looped peptide … (rabies virus strain ERA); remark: listed apart in the source
[70] = target: looped peptide … (rabies virus strain ERA); remark: listed apart in the source
[71] = target: looped peptide … (rabies virus strain ERA); remark: listed apart in the source
[72] = target: looped peptide … (rabies virus strain ERA); remark: listed apart in the source
[73] = target: looped peptide … (rabies virus strain ERA); remark: listed apart in the source
[74] = target: looped peptide … (rabies virus strain ERA); remark: listed apart in the source
[75] = target: looped peptide … (rabies virus strain ERA); remark: listed apart in the source
[76] = target: looped peptide … (rabies virus strain ERA); remark: listed apart in the source
[77] = target: looped peptide … (rabies virus strain ERA); remark: listed apart in the source
[78] = target: looped peptide … (rabies virus strain ERA); remark: listed apart in the source
[79] = target: looped peptide … (rabies virus strain ERA); remark: listed apart in the source
[80] = target: looped peptide … (rabies virus strain ERA); remark: listed apart in the source
[81] = target: looped peptide … (rabies virus strain ERA); remark: listed apart in the source
[82] = target: looped peptide … (rabies virus strain ERA); remark: listed apart in the source
[83] = target: looped peptide … (rabies virus strain ERA); remark: listed apart in the source
[84] = target: looped peptide … (rabies virus strain ERA); remark: listed apart in the source
[85] = target: looped peptide … (rabies virus strain ERA); remark: listed apart in the source
[86] = target: looped peptide … (rabies virus strain ERA); remark: listed apart in the source
[87] = target: looped peptide … (rabies virus strain ERA); remark: listed apart in the source
[88] = target: looped peptide … (rabies virus strain ERA); remark: listed apart in the source
[89] = target: looped peptide … (rabies virus strain ERA); remark: listed apart in the source
[90] = target: looped peptide … (rabies virus strain ERA); remark: listed apart in the source
[91] = target: looped peptide … (rabies virus strain ERA); remark: listed apart in the source
[92] = target: looped peptide … (rabies virus strain ERA); remark: listed apart in the source
[93] = target: looped peptide … (rabies virus strain ERA); remark: listed apart in the source
[94] = target: looped peptide … (rabies virus strain ERA); remark: listed apart in the source
[95] = target: looped peptide … (rabies virus strain ERA); remark: listed apart in the source
[96] = target: looped peptide … (rabies virus strain ERA); remark: listed apart in the source
[97] = target: looped peptide … (rabies virus strain ERA); remark: listed apart in the source
[98] = target: looped peptide … (rabies virus strain ERA); remark: listed apart in the source

B1: human monoclonal antibody CRJA (antibody, V domains shown)
VH: EVQLLESGGGLVQPGGSLRLSCAASGFTFSNYAMSWVRQAPGKGLEWVSAISASGHSTYLADSVKGRFTISRDNSKNTLYLQMNSLRAEDTAVYYCAKDREVTMIVVLNGGFDYWGQGTRVTVSS
VL: EIVLTQSPATLSLSPGERATLACRASQTASRYLAWYQQKPGQAPRLLIYDTSNRATGIPARFSGSGSGTDFTLSISSLEPEDFAVYYCQQRFNWPWTFGQGTKVEFK
B1 gave an OD value [1] of 93, an OD value [2] of 112 and an OD value [3] of 104. It also gave an OD value [4] of 84, an OD value [5] of 72 and an OD value [6] of 100. For the same binder, the OD value [7] was 71, the OD value [8] was 100 and the OD value [9] was 62. It also gave an OD value [10] of 94, an OD value [11] of 100 and an OD value [12] of 92. It also gave an OD value [13] of 90, an OD value [14] of 50 and an OD value [15] of 93. For the same binder, the OD value [16] was 82, the OD value [17] was 57 and the OD value [18] was 55. For the same binder, the OD value [19] was 45, the OD value [20] was 49 and the OD value [21] was 98. For the same binder, the OD value [22] was 98, the OD value [23] was 41 and the OD value [24] was 66. The OD value [25] was 90, the OD value [26] was 92 and the OD value [27] was 110. For the same binder, the OD value [28] was 88, the OD value [29] was 93 and the OD value [30] was 96. The OD value [31] was 80, the OD value [32] was 87 and the OD value [33] was 43. For the same binder, the OD value [34] was 123, the OD value [35] was 51 and the OD value [36] was 79. The OD value [37] was 92, the OD value [38] was 104 and the OD value [39] was 59. For the same binder, the OD value [40] was 100, the OD value [41] was 92 and the OD value [42] was 125. The OD value [43] was 56, the OD value [44] was 92 and the OD value [45] was 73. The OD value [46] was 90, the OD value [47] was 93 and the OD value [48] was 72. For the same binder, the OD value [49] was 90, the OD value [50] was 71 and the OD value [51] was 90. It also gave an OD value [52] of 96, an OD value [53] of 110 and an OD value [54] of 64. For the same binder, the OD value [55] was 110, the OD value [56] was 78 and the OD value [57] was 100. The OD value [58] was 90, the OD value [59] was 104 and the OD value [60] was 113. The OD value [61] was 71, the OD value [62] was 74 and the OD value [63] was 104. For the same binder, the OD value [64] was 104, the OD value [65] was 88 and the OD value [66] was 69. It also gave an OD value [67] of 96, an OD value [68] of 110 and an OD value [69] of 75. For the same binder, the OD value [70] was 108, the OD value [71] was 86 and the OD value [72] was 84. For the same binder, the OD value [73] was 92, the OD value [74] was 105 and the OD value [75] was 94. The OD value [76] was 120, the OD value [77] was 82 and the OD value [78] was 113. It also gave an OD value [79] of 51, an OD value [80] of 83 and an OD value [81] of 100. It also gave an OD value [82] of 118, an OD value [83] of 90 and an OD value [84] of 90. For the same binder, the OD value [85] was 108, the OD value [86] was 88 and the OD value [87] was 86. The OD value [88] was 96, the OD value [89] was 93 and the OD value [90] was 90. The OD value [91] was 49, the OD value [92] was 88 and the OD value [93] was 113. The OD value [94] was 113, the OD value [95] was 129 and the OD value [96] was 88. For the same binder, the OD value [97] was 46 and the OD value [98] was 96.
